Patent US20250206837A1 (ELIXIRON IMMUNOTHERAPEUTICS HONG KONG, published 2025)
Changes are numbered by the printed parent chain. “And” between values parts separate entries of the source, which are not always exact repeats. Equal entries are not always repeated.

B1: 117_57D (antibody, V domains shown)
VH: EVQLVESGGGLVQPGGSLRLSCAASGFTISSFGIHWVRQAPGKGLEWVAWIAPYGGDTYYADSVKGRFTISADTSKNTAYLQMNSLRAEDTAVYYCARSFFGYFDYWGQGTLVTVSS
VL: DIQMTQSPSSLSASVGDRVTITCRASQDVSNWVAWYQQKPGKAPKLLISYATSLYSGVPSRFSGSGSGTDFTLTISSLQPEDFATYYCQQHSNAPLTFGQGTKVEIKR
notes: full-length IgG, human kappa
B2: 117_DA57E (antibody, V domains shown)
VH: B1 VH with S30D, S31A, D57E
VL: B1 VL
notes: full-length IgG, human kappa
B3: 117_DA57D (antibody, V domains shown)
VH: B1 VH with S30D, S31A
VL: B1 VL
notes: full-length IgG, human kappa
B4: 117_30DA (antibody, V domains shown)
VH: B1 VH with S30D, S31A, D57Y
VL: B1 VL
notes: full-length IgG, human kappa
B5: 117_101A (antibody, V domains shown)
VH: B1 VH with D57Y, F101A
VL: B1 VL
notes: full-length IgG, human kappa
B6: 117_101K (antibody, V domains shown)
VH: B1 VH with D57Y, F101K
VL: B1 VL
notes: full-length IgG, human kappa
B7: 117_57R (antibody, V domains shown)
VH: B1 VH with D57R
VL: B1 VL
notes: full-length IgG, human kappa
B8: 117_57A (antibody, V domains shown)
VH: B1 VH with D57A
VL: B1 VL
notes: full-length IgG, human kappa
B9: 117_58E (antibody, V domains shown)
VH: B1 VH with D57Y, T58E
VL: B1 VL
notes: full-length IgG, human kappa
B10: 117_AA57D (antibody, V domains shown)
VH: B1 VH with S30A, S31A
VL: B1 VL
notes: full-length IgG, human kappa
B11: 117_AA57E (antibody, V domains shown)
VH: B1 VH with S30A, S31A, D57E
VL: B1 VL
notes: full-length IgG, human kappa
B12: 117_30AA (antibody, V domains shown)
VH: B1 VH with S30A, S31A, D57Y
VL: B1 VL
notes: full-length IgG, human kappa
B13: 117_30DT (antibody, V domains shown)
VH: B1 VH with S30D, S31T, D57Y
VL: B1 VL
notes: full-length IgG, human kappa
B14: 117_30FT (antibody, V domains shown)
VH: B1 VH with S30F, S31T, D57Y
VL: B1 VL
notes: full-length IgG, human kappa
B15: 117_30AT (antibody, V domains shown)
VH: B1 VH with S30A, S31T, D57Y
VL: B1 VL
notes: full-length IgG, human kappa
B16: 117_30FA (antibody, V domains shown)
VH: B1 VH with S30F, S31A, D57Y
VL: B1 VL
notes: full-length IgG, human kappa

Target: T1, mouse CD36-His overexpressed on stable F293 cells (mouse, UniProt Q08857 1-472)
T1 construct: Gene segment from Sino Biological; also called F293/mCD36; mCD36; not shown: His tag
T1 sequence (Q08857 whole entry): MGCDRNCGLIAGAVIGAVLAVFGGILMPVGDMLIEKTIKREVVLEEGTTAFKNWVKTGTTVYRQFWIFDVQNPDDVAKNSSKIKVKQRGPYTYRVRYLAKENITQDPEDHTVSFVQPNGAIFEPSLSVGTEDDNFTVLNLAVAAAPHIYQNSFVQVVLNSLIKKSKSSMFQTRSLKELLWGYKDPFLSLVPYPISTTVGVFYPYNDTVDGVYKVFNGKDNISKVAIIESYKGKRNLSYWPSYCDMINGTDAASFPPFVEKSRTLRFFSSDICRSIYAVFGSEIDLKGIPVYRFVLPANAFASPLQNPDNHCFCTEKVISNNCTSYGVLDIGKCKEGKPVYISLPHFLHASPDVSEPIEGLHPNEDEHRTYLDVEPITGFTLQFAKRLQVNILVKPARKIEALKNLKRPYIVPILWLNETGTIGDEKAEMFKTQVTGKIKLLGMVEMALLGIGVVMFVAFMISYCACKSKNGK
Experiment: flow cytometry, F293 cells overexpressing mouse CD36
Source text: (§1) After washing with FACS buffer (2% FBS in PBS), the cells were stained with anti-human IgG-Alexa Fluor 647 and analyzed by Attune NxT Flow Cytometer (Thermo Scientific).

Row | EC50 | Binder
1 | 0.309 µg/mL | B1
2 | 0.425 µg/mL and 0.375 µg/mL | B2
3 | 0.271 µg/mL | B3
4 | 0.488 µg/mL | B4

Target: T2, Recombinant His-tagged human CD36.ECD protein (Sino Biological) (human, UniProt P16671 30-439)
T2 construct: Bought protein; also called hCD36.ECD; hCD36; not shown: His tag
T2 sequence (P16671 30-439 limits assumed): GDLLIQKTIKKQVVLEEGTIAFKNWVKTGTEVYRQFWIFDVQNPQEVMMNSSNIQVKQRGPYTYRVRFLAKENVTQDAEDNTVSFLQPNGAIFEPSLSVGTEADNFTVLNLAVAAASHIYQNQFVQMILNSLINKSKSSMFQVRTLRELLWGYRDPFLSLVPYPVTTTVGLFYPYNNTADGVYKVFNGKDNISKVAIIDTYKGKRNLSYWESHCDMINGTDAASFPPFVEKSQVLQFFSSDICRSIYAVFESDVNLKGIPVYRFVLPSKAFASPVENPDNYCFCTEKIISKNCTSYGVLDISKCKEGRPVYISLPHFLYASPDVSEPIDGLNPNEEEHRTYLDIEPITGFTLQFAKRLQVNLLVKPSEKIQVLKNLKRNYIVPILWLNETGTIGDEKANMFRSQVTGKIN
Experiment: ELISA, coated human CD36.ECD (FIG. 2D)
Procedure: (§2) ELISA materials and methods: Recombinant His-tagged human CD36.ECD protein or His-tagged mouse CD36.ECD protein (both from Sino Biological) was immobilized on 96 well microtiter plate at a concentration of 1 μg/mL in Coating Solution (SeraCare) overnight at 4° C. The wells were washed with wash solution (0.05% Tween20 in PBS) and blocked with 1% BSA in PBS. Serial dilutions of anti-CD36 antibodies were added to wells. After incubation at 37° C. for 1 h, the wells were washed with wash solution. Peroxidase-conjugated Goat anti-human kappa Light chain antibody (Sigma) was applied to each well at 37° C. for 1 h incubation. After washing, the wells were developed with TMB substrate for 5-10 min at room temperature and then stopped with 1 N HCl. Thereafter absorbance was measured at 450 nm and 650 nm. EC50 values were calculated through GraphPad Prism7.
(§3) The competitor anti-CD36 antibody ONA, which is derived from clone “ONA-0-v1” as disclosed in WO2021176424A1 in hIgG4-S228P-FALA format.

Row | EC50 | Binder
5 | 0.0539 nM | B2
6 | 0.0751 nM | B5
7 | 1.46 nM | B6
8 | 0.049 nM | B3
9 | 0.0803 nM | B4

Target: T2, Recombinant His-tagged human CD36.ECD …
Experiment: ELISA, coated human CD36.ECD (FIG. 2A)
Procedure: as §2, §3

Row | EC50 | Binder
10 | 0.0529 nM | B1
11 | 0.0695 nM | B7
12 | 1.52 nM | B8
13 | 0.422 nM | B9

Target: T3, rhesus CD36-His overexpressed on stable F293 cells (rhesus, UniProt P16671 2-472 (human entry))
T3 construct: Gene segment from Sino Biological; also called F293/rhesusCD36; not shown: His tag
T3 sequence (P16671 other isoform, or with tags, fused parts or gaps): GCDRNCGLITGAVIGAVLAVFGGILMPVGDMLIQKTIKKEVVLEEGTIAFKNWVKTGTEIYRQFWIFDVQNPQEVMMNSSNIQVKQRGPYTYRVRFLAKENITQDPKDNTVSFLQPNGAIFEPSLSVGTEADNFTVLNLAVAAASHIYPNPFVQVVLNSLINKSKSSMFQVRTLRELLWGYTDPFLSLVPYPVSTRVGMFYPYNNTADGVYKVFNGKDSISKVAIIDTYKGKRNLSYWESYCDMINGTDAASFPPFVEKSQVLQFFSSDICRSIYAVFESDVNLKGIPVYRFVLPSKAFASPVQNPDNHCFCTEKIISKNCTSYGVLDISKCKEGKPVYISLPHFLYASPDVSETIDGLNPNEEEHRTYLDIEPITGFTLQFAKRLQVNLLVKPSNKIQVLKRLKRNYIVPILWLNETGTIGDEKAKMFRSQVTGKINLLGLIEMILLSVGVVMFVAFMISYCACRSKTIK
Experiment: flow cytometry, F293 cells overexpressing rhesus CD36
Source text: as §1

Row | EC50 | Binder
14 | 0.397 µg/mL | B1
15 | 0.563 µg/mL and 0.671 µg/mL | B2
16 | 0.416 µg/mL | B3
17 | 1.04 µg/mL | B4

Target: T4, full-length human CD36-Flag overexpressed on stable F293 cells (human, UniProt P16671 2-472)
T4 sequence (P16671 2-472): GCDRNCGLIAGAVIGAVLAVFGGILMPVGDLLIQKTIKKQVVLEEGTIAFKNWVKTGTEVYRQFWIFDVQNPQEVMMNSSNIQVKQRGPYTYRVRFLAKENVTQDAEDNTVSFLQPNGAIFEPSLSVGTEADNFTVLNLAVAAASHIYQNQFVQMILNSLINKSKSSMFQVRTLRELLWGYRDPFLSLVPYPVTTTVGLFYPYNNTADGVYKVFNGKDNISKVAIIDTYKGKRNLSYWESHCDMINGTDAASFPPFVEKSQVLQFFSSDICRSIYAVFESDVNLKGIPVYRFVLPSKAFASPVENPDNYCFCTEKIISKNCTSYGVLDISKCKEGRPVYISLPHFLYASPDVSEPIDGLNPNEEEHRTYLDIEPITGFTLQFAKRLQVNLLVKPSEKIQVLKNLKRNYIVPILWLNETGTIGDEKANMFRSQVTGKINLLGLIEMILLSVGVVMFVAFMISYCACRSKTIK
Experiment: cell-based or functional assay

Row | oxLDL uptake IC50 (nM), F293/hCD36 | Binder
18 | 0.349 nM | B1
19 | 0.306 nM | B2
20 | 0.332 nM | B3
21 | 0.691 nM | B4

Target: T1, mouse CD36-His overexpressed on stable …
Experiment: cell-based or functional assay

Row | oxLDL uptake IC50 (nM), F293/mCD36 | Binder
22 | 0.783 nM | B1
23 | 1.07 nM | B4

Target: T4, full-length human CD36-Flag …
Experiment: flow cytometry, F293 cells overexpressing human CD36
Source text: as §1

Row | EC50 | Binder
24 | 0.111 µg/mL | B1
25 | 0.109 µg/mL and 0.0968 µg/mL | B2
26 | 0.089 µg/mL | B3
27 | 0.157 µg/mL | B4

Target: T2, Recombinant His-tagged human CD36.ECD …
Experiment: ELISA, coated human CD36.ECD (FIG. 2F)
Procedure: as §2, §3

Row | EC50 | Binder
28 | 0.19 nM | B2
29 | 0.192 nM | B10
30 | 0.251 nM | B11

Target: T2, Recombinant His-tagged human CD36.ECD …
Experiment: ELISA, coated human CD36.ECD (FIG. 2C)
Procedure: as §2, §3

Row | EC50 | Binder
31 | 0.145 nM | B12
32 | 0.103 nM | B13
33 | 0.254 nM | B14
34 | 0.247 nM | B15
35 | 0.137 nM | B4
36 | 0.202 nM | B16
